Source: patent US20260028400A1 (AIMED BIO, published 2026)
Numbering of substitutions follows the chain as printed.

B1: P015042 (antibody, V domains shown)
VH: EVQLLESGGGLVQPGGSLRLSCAASGFTFSDYAMSWVRQAPGKGLEWVSVISSDGGSIYYADSVKGRFTISRDNSKNTLYLQMNSLRAEDTAVYYCAKDRSRDMEVDFDYWGQGTLVTVSS
VL: QSVLTQPPSASGTPGQRVTISCSGSSSNIGSNYVTWYQQLPGTAPKLLIYDSSQRPSGVPDRFSGSKSGTSASLAISGLRSEDEADYYCGTWDYSLSGYVFGGGTKLTVL
B2: P015042v1-6 (antibody, V domains shown)
VH: B1 VH with G55K
VL: B1 VL with S52K, S97N, G98A
notes: Variant of P015042v1, tested as IgG
B3: P015042v1 (antibody, V domains shown)
VH: B1 VH
VL: B1 VL with S97N
notes: Tested as complete IgG; Parent of the variants P015042v1-1 to P015042v1-6
B4: P015004 (antibody, V domains shown)
VH: EVQLLESGGGLVQPGGSLRLSCAASGFTFSDYAMAWVRQAPGKGLEWVSIIYPGDSETIYSPSFEGRFTISRDNSKNTLYLQMNSLRAEDTAVYYCARDTYWEGYFDLWGQGTLVTVSS
VL: EIVLTQSPGTLSLSPGERATLSCRASQGISNYLAWYQQKPGQAPRLLIYDASNLESGIPDRFSGSGSGTDFTLTISRLEPEDFAVYYCQQYANLPYTFGQGTKVEIK
B5: P015044 (antibody, V domains shown)
VH: EVQLLESGGGLVQPGGSLRLSCAASGFTFSNYAMHWVRQAPGKGLEWVSIIYPDDDTRYNPSFRGRFTISRDNSKNTLYLQMNSLRAEDTAVYYCARDLLYAGDYWGQGTLVTVSS
VL: QSVLTQPPSASGTPGQRVTISCGGNNIESKAVHWYQQLPGTAPKLLIYANNKRPSGVPDRFSGSKSGTSASLAISGLRSEDEADYYCQSYDSNKVVFGGGTKLTVL
B6: P015012 (antibody, V domains shown)
VH: EVQLLESGGGLVQPGGSLRLSCAASGFTFSGYSMSWVRQAPGKGLEWVSGISYGGSSISYADSVKGRFTISRDNSKNTLYLQMNSLRAEDTAVYYCAKPVRRWARFRLSYDDAMDVWGQGTLVTVSS
VL: B1 VL with S31N, Y33A, T35N, D51A, S52N, Q54H, Y94S
B7: P015018 (antibody, V domains shown)
VH: EVQLLESGGGLVQPDGSMRLICAASGFTFSSYAKHWVRQAPGKGLEWVSEIYTSGSTNYNPSLKSRFTISRDNSKNTLYLQMNSLRAEDTAVYYCARDTWWEGYFDLWGQGTLVTVSS
VL: B4 VL with G28S, I29V, N31T, N53S, Y91S, A92Y, Y96H

What follows are binders tested against T1, ROR1 expressed on cell surface (Jeko-1 cell line, AMB-LC-0003T and AMB-LC-0002T patient-derived lung cancer … (human, UniProt Q01973 30-937)) (assay: flow cytometry on Jeko-1 cells).
T1 construct: whole, on cells; Endogenous ROR1 on human cells; the cell is named in the assay or readout field of each row; also called ROR1 antigen expressed in AMB-LC-0003T patient-derived lung cancer cells; ROR1 antigen expressed in Jeko-1 cell line
T1 sequence (Q01973 30-937): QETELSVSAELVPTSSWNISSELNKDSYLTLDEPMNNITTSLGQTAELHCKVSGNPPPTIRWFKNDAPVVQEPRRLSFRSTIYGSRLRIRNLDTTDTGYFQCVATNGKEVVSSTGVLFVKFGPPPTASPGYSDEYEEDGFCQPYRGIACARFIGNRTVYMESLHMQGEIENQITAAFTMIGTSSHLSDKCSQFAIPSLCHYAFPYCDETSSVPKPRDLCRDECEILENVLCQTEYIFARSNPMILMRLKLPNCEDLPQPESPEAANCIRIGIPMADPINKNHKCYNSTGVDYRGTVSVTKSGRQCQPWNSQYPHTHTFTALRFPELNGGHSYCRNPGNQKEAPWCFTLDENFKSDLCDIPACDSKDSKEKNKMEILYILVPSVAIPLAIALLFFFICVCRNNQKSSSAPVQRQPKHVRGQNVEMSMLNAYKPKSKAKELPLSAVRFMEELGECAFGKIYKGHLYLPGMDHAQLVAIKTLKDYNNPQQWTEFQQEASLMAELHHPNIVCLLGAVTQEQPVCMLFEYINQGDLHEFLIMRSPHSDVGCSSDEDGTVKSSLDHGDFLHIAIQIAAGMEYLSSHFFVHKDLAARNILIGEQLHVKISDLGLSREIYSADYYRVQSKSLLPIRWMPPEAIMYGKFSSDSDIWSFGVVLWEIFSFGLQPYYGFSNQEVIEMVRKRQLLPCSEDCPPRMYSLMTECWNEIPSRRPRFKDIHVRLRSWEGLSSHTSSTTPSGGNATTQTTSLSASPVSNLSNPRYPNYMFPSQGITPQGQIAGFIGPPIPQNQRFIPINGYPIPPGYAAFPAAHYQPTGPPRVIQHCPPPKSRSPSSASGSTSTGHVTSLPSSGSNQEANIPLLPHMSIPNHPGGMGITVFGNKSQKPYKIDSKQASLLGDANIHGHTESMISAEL
Method: (§1) Before therapeutic use of anti-ROR1 antibodies, it is very important to determine whether the antibody binds to the antigen expressed on the cell surface. The cell binding ability of anti-ROR1 antibodies developed by the present inventors was measured using FACS in Jeko-1 cell line and AMB-LC-0003T patient-derived cells, which were confirmed to have high ROR1 expression. Each cell type was dispensed at 1×10⁵ cells/100 μl FACS buffer per well in a 96-well plate.
(§2) Cell binding ability analysis was performed using anti-ROR1 candidate antibodies P015004, P015042, P015043, P015044, P015042v1 with improved biological and physical properties, and P015042v1-6, one of modified materials thereof. Each antibody was serially diluted 10-fold from 100 nM to 10 nM, 1 nM, 100 pM, 10 pM, and 1 pM and the cells were treated therewith. After reaction at 4° C. for 30 minutes, washing was performed twice. PE-labeled goat anti-human IgG Fc PE (ThermoFisher; 12-4998-82) as a secondary antibody was diluted at a ratio of 1:100 in FACS buffer, and 100 μl thereof was dispensed per well. Reaction again at 4° C. for 30 minutes and washing twice were performed. Finally, 100 μl of FACS buffer was dispensed per well, followed by mixing well with a pipette and then flow cytometry using a NovoCyte flow cytometer (Agilent). Analysis was performed using GraphPad Prism 9.3.1, and EC₅₀ values were obtained using a log (agonist) vs. response-Variable slope nonlinear graph model.
B1 was tested, and the EC50 was 0.081 nM.
Binder B2 has an EC50 of 0.011 nM.
B3 showed an EC50 of 0.014 nM.
For B4, the EC50 was 8.16 nM.
With B5 the EC50 was 0.13 nM.

The binders below were run against T2, mouse ROR1 (mouse, UniProt Q9Z139 30-403, limits assumed) (assay: SPR (Biacore 3000), mouse ROR1 on CM5 chip, IgG injected, 1:1 Langmuir).
T2 construct: also called mouse ROR1 protein
T2 sequence (Q9Z139 30-403 limits assumed): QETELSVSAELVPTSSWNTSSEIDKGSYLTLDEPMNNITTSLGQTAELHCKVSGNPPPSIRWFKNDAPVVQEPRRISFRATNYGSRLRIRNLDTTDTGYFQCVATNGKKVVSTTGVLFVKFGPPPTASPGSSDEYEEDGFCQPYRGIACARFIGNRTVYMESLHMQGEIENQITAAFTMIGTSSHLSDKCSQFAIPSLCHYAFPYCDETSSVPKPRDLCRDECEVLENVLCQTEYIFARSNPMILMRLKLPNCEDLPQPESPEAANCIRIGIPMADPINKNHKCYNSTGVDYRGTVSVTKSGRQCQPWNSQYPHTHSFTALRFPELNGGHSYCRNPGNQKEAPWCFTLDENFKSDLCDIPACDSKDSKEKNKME
Method: (§3) To more quantitatively analyze the binding ability of the anti-ROR1 antibody to ROR1, SPR (surface plasmon resonance) was performed. A Biacore 3000 device (GE Healthcare) was used. Using the amine coupling method, human ROR1 or mouse ROR1 was diluted with 10 mM sodium acetate, pH 4.5 and immobilized on a CM5 sensor chip (GE Healthcare) at 300 response units (RU). The activated portion remaining on the surface of the sensor chip was deactivated by adding 1 M ethanolamine-HCl (pH 8.5).
B1 gave a Kd of 0.102 nM, a koff of 0.000176 s⁻¹ and a kon of 1.72e+06 M⁻¹ s⁻¹.
B6 showed a Kd of 0.285 nM, a koff of 0.000356 s⁻¹ and a kon of 1.25e+06 M⁻¹ s⁻¹.
B2 showed a Kd of 0.802 nM, a koff of 0.0015 s⁻¹ and a kon of 1.87e+06 M⁻¹ s⁻¹.
B3 showed a Kd of 0.175 nM, a koff of 0.00034 s⁻¹ and a kon of 1.94e+06 M⁻¹ s⁻¹.
Work on B4 yielded a Kd of 0.328 nM, a koff of 0.00269 s⁻¹ and a kon of 8.18e+06 M⁻¹ s⁻¹.
Work on B7 yielded a Kd of 83.2 nM, a koff of 0.0782 s⁻¹ and a kon of 940000 M⁻¹ s⁻¹.
With B5 the Kd was 1.21 nM, the koff was 0.00202 s⁻¹ and the kon was 1.67e+06 M⁻¹ s⁻¹.

What follows are binders tested against T3, human ROR1 (human, UniProt Q01973 30-403, limits assumed) (assay: ELISA, IgG on coated human ROR1, OD450).
T3 construct: also called human ROR1 protein
T3 sequence (Q01973 30-403 limits assumed): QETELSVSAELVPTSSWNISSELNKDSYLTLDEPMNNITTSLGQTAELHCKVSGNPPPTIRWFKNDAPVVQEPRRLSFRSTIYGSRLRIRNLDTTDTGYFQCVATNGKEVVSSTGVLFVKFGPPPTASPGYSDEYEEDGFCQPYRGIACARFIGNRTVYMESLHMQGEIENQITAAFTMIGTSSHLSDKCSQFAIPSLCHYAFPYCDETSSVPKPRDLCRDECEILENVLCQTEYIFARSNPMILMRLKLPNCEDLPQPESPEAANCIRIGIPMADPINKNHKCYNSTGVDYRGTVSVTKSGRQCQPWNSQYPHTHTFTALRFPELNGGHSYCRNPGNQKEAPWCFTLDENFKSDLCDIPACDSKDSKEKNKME
Method: (§4) A 96-well plate was coated at 4° C. for 16 hours with each of human ROR1 and mouse ROR1 proteins at a concentration of 2 μg/ml and then blocked using […]. […] After washing with PBST and distilled water, binding at room temperature for 1 hour using a goat-derived HRP-conjugated anti-human antibody (Invitrogen, 31482, Goat anti-Human IgG F(ab′)₂ Secondary Antibody, HRP) and then washing again using PBST and distilled water were performed. After color development by adding TMB substrate solution (Thermo Scientific, 34029, 1-Step™ Ultra TMB-ELISA Substrate Solution), the color reaction was stopped with stop solution (Invitrogen, SS04, ELISA Stop Solution), and the absorbance was measured at OD 450 nm. It was confirmed that the anti-ROR1 antibody of the present invention and the modified antibody thereof with improved biological and physical properties […] to human ROR1 and mouse ROR1 (FIG. 2).
With B2 the “EC50 (read off the curve)” value was roughly 0.5 nM.
B7 was tested, and the “EC50 (read off the curve)” value was roughly 1 nM.

The binders below were run against T2, mouse ROR1 (assay: ELISA, IgG on coated mouse ROR1, OD450).
Method: as §4
With B2 the “EC50 (read off the curve)” value was roughly 1 nM.

These binders were tested against T4, FZD+KRD (human, UniProt Q01973) (assay: ELISA, IgG on coated domain, OD450).
T4 construct: frizzled plus kringle domains, His tag; also called FK domain; human ROR1-frizzled-kringle domain
T4 sequence (Q01973 165-395 limits assumed): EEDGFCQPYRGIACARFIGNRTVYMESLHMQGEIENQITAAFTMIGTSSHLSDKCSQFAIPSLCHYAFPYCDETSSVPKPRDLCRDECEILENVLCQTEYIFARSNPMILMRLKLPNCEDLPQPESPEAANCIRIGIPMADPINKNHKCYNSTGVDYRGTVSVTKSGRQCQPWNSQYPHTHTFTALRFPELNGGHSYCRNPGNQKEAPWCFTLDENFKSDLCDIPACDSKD
Method: (§5) ELISA was performed to analyze the binding domain using the IgG antibody of the selected clone.
(§6) After washing with PBST and distilled water, binding at room temperature for 1 hour using a goat-derived HRP-conjugated anti-human antibody (Invitrogen, 31482, Goat anti-Human IgG F(ab′)₂ Secondary Antibody, HRP) and then washing again using PBST and distilled water were performed. After color development by adding TMB substrate solution (Thermo Scientific, 34029, 1-Step™ Ultra TMB-ELISA Substrate Solution), the color reaction was stopped with stop solution (Invitrogen, SS04, ELISA Stop Solution), and the absorbance was measured at OD 450 nm. The anti-ROR1 antibody clone binding to each domain was analyzed through ELISA (FIG. 3).
B1: no binding (tested: 300 nM).
B4: no binding (tested: 300 nM).
B7: no binding (tested: 300 nM).
B5: no binding (tested: 300 nM).

Each binder was assayed against T5, Ig+FZD (human) (assay: ELISA, IgG on coated domain, OD450).
T5 construct: Ig-like plus frizzled domains, His tag; also called IF domain; human ROR1-immunoglobulin-frizzled domain
T5 sequence (Q01973 30-305): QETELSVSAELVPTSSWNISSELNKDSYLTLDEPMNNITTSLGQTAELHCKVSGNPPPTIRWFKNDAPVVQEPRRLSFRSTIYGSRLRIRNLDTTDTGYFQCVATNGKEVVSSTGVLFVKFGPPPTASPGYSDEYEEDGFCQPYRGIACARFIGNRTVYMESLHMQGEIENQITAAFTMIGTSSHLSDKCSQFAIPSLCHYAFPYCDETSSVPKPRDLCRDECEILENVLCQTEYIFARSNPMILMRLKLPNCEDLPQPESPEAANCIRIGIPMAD
Method: as §5, §6
With B1 the “EC50 (read off the curve)” value was roughly 0.4 nM.
In the case of B6, the “EC50 (read off the curve)” value is reported as roughly 2 nM.
B4 was tested, and the “EC50 (read off the curve)” value was roughly 3 nM.
B7 was tested, and the “EC50 (read off the curve)” value was roughly 10 nM.

What follows are binders tested against T6, Ig-like (human, UniProt Q01973) (assay: ELISA, IgG on coated domain, OD450).
T6 construct: Ig-like domain, His tag; also called Ig-like domain; human ROR1-immunoglobulin domain
T6 sequence (Q01973 39-151 limits assumed): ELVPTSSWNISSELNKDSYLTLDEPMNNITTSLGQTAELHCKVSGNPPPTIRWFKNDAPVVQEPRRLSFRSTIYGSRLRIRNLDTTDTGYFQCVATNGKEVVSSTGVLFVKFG
Method: as §5, §6
B1 was tested, and the “EC50 (read off the curve)” value was roughly 7 nM.
B6: no binding (tested: 300 nM).
B4: no binding (tested: 300 nM).
B7: no binding (tested: 300 nM).

These binders were tested against T7, FZD (human, UniProt Q01973) (assay: ELISA, IgG on coated domain, OD450).
T7 construct: frizzled domain, His tag; also called Frizzled domain; human ROR1-frizzled domain
T7 sequence (Q01973 165-305 limits assumed): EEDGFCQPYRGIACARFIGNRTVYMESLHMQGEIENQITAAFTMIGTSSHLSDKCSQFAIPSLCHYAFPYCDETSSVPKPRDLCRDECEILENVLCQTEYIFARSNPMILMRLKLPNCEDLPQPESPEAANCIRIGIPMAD
Method: as §5, §6
B1: no binding (tested: 300 nM).
B4: no binding (tested: 300 nM).
B7: no binding (tested: 300 nM).
B5: no binding (tested: 300 nM).

Each binder was assayed against T1, ROR1 expressed on cell surface (Jeko-1 …) (assay: flow cytometry on AMB-LC-0003T patient-derived lung cancer cells).
Method: as §1, §2
For B1, the EC50 was 0.15 nM.
In the case of B3, the EC50 is reported as 0.16 nM.
B4 showed an EC50 of 4.6 nM.
B5 showed an EC50 of 1.78 nM.

What follows are binders tested against T3, human ROR1 (assay: SPR (Biacore 3000), human ROR1 on CM5 chip, IgG injected, 1:1 Langmuir).
Method: as §3
Binder B1 has a Kd of 0.17 nM, a koff of 0.000239 s⁻¹ and a kon of 1.41e+06 M⁻¹ s⁻¹.
With B6 the Kd was 0.0789 nM, the koff was 0.000321 s⁻¹ and the kon was 4.07e+06 M⁻¹ s⁻¹.
With B2 the Kd was 0.0912 nM, the koff was 0.000157 s⁻¹ and the kon was 1.72e+06 M⁻¹ s⁻¹.
B3 gave a Kd of 0.172 nM, a koff of 0.000278 s⁻¹ and a kon of 1.62e+06 M⁻¹ s⁻¹.
In the case of B4, the Kd is reported as 0.325 nM, the koff is reported as 0.00343 s⁻¹ and the kon is reported as 1.06e+07 M⁻¹ s⁻¹.
B7 was tested, and the Kd was 0.845 nM, the koff was 0.00249 s⁻¹ and the kon was 2.95e+06 M⁻¹ s⁻¹.
With B5 the Kd was 3.08 nM, the koff was 0.00382 s⁻¹ and the kon was 1.24e+06 M⁻¹ s⁻¹.
